B1: long-acting iduronate-2-sulfatase conjugate (protein, part only; not given: Immunoglobulin Fc and PEG linker, human, UniProt P22304 26-550, looked up, not shown: a dimerising Fc or GST)
chain: SETQANSTTDALNVLLIIVDDLRPSLGCYGDKLVRSPNIDQLASHSLLFQNAFAQQAVCAPSRVSFLTGRRPDTTRLYDFNSYWRVHAGNFSTIPQYFKENGYVTMSVGKVFHPGISSNHTDDSPYSWSFPPYHPSSEKYENTKTCRGPDGELHANLLCPVDVLDVPEGTLPDKQSTEQAIQLLEKMKTSASPFFLAVGYHKPHIPFRYPKEFQKLYPLENITLAPDPEVPDGLPPVAYNPWMDIRQREDVQALNISVPYGPIPVDFQRKIRQSYFASVSYLDTQVGRLLSALDDLQLANSTIIAFTSDHGWALGEHGEWAKYSNFDVATHVPLIFYVPGRTASLPEAGEKLFPYLDPFDSASQLMEPGRQSMDLVELVSLFPTLAGLAGLQVPPRCPVPSFHVELCREGKNLLKHFRFRDLEEDPYLPGNPRELIAYSQYPRPSDIPQWNSDKPSLKDIKIMGYSIRTIDYRYTVWVGFNPDEFLANFSDIHAGELYFVDSDPLQDHNMYNDSQGGDLFQLLMP
modifications: N-terminus linked through a 10 kDa polyethylene glycol linker (from ALD-PEG-ALD, reductive amination) to the N-terminal proline of one chain of the immunoglobulin Fc

Key:
[1] = target: mannose phosphate 6 receptor (M6PR) expressed on HepG2 cells (human); experiment: cell-based or functional assay
[2] = target: mannose phosphate 6 receptor (M6PR), immobilized on a CM5 chip; experiment: SPR, M6PR immobilized; the reference itself
[3] = target: mannose phosphate 6 receptor (M6PR), immobilized on a CM5 chip; experiment: SPR (BIACORE T200), M6PR immobilized on CM5 chip by amine coupling
[4] = target: mannose phosphate 6 receptor (M6PR), immobilized on a CM5 chip; experiment: SPR (BIACORE T200), M6PR immobilized on CM5 chip by amine coupling, analyte 200 nM to 12.5 nM in HBS-EP
[5] = target: mannose phosphate 6 receptor (M6PR), immobilized on a CM5 chip; experiment: SPR, M6PR immobilized; relative to iduronate-2-sulfatase

Molecule | intracellular absorption activity (Vmax), HepG2 cells, 24 h at 37 C, ELISA of cell content [1] | relative binding affinity from KD (% of iduronate-2-sulfatase) [2] [%] | relative ka (% of iduronate-2-sulfatase) [2] [%] | relative kd (% of iduronate-2-sulfatase) [2] [%] | Kd [3] [nM] | koff [3] [s⁻¹] | kon [4] [M⁻¹ s⁻¹] | intracellular absorption activity relative to iduronate-2-sulfatase [1] [%] | relative binding affinity from KD (% of iduronate-2-sulfatase) [5] [%] | relative ka (% of iduronate-2-sulfatase) [5] [%] | relative kd (% of iduronate-2-sulfatase) [5] [%] | kon [3] [M⁻¹ s⁻¹]
iduronate-2-sulfatase (Elaprase manufactured by Shire) (from UniProt P22304 26-550) (enzyme) | 9.5 nM | 100 | 100 | 100 | 29.1 | 0.00395 | 136000 |  |  |  |  | 
B1 | 10.8 ng/mL |  |  |  | 33.1 | 0.00307 |  | 81.4 | 88 | 67 | 78 | 92000

Reference: patent publication US20200230253A1
